According to PMC5626551:

Tests used:
[1] = biological target: 14-3-3ε (UniProt P92177); experiment: GST-14-3-3ε pull-down, anti-GFP blot; settings: reference: wild type Ncd-GFP; sites S96
[2] = biological target: 14-3-3ε (UniProt P92177); experiment: MBP-14-3-3ε pull-down, anti-pS96 blot; settings: reference: unphosphorylated Ncd tail (control not described in text); sites S96
[3] = biological target: 14-3-3ε (UniProt P92177); experiment: MBP-14-3-3ε amylose pull-down of purified tail; settings: reference: Ncd tail without kinase; sites S96

Substance: Ncd (kinesin-14) (from UniProt P20480) S96A
- binding against the reference [1]: weaker

Substance: Ncd (kinesin-14) tail, 58-192 (from UniProt P20480) Ncd tail after PKD2 and cold ATP
- binding against the reference [2]: stronger

Substance: Ncd (kinesin-14) tail, 58-192 (from UniProt P20480) PKD2-phosphorylated Ncd tail
- binding against the reference [3]: stronger
